Measurements from patent US20250114450A1, “PHARMACEUTICAL COMBINATION CONTAINING ANTI-PD-1-ANTI-VEGFA BISPECIFIC ANTIBODY, AND USE THEREOF” (Akeso Biopharma, Inc., priority 2021, published 2025).
pKd: −log10 of the molar value.

Molecular target: FcγRI (UniProt P12314)
Assay: BLI (Fortebio Octet), FcγRI immobilized on HIS1K sensor, antibody 3.12-50 nM, 1:1 fit

FcγRI, sequence (P12314 16-288 limits assumed): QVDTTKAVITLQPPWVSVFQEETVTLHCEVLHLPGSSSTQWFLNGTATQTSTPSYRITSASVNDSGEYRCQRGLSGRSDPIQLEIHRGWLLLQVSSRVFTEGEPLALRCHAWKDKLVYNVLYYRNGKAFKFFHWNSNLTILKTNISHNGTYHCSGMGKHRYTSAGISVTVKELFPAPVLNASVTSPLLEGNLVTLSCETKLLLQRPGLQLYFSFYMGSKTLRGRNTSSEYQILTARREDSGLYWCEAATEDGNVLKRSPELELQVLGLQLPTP

pKd: 8.21
Substance: Nivolumab (antibody)
